Results: patent publication US20220268787A1 (JW BIOSCIENCE, published 2022)

Assays:
Assay in all cases: indirect ELISA, antigen coated at 1 µg/ml
[1] = molecular target: T1, CRS (cysteinyl-tRNA synthetase) (UniProt P49589 1-748, limits assumed)
T1 sequence (looked up): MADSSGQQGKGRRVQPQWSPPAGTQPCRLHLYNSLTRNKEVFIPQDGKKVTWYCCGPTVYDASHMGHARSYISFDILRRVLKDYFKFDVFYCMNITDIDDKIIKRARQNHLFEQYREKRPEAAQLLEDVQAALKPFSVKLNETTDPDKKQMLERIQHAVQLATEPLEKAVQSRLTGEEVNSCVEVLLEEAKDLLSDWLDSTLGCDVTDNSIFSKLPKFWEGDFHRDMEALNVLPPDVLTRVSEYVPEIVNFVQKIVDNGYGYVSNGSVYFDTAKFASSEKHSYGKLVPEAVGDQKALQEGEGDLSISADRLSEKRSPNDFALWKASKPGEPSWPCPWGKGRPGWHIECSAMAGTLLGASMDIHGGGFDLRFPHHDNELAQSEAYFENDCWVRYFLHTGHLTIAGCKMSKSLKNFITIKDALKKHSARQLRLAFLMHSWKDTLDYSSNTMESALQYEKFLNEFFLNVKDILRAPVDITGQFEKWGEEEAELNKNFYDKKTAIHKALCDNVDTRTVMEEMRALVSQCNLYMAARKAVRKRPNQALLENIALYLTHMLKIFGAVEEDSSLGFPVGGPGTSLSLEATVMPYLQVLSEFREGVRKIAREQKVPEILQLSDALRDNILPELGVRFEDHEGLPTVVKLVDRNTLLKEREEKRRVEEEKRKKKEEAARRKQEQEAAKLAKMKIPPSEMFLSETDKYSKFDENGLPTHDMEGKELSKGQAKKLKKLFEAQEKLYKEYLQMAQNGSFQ

[2] = molecular target: T2, AIMP1 (aminoacyl tRNA synthase complex-interacting multifunctional protein 1) (UniProt Q12904 1-312, limits assumed)
T2 construct: also called p43
T2 sequence (looked up): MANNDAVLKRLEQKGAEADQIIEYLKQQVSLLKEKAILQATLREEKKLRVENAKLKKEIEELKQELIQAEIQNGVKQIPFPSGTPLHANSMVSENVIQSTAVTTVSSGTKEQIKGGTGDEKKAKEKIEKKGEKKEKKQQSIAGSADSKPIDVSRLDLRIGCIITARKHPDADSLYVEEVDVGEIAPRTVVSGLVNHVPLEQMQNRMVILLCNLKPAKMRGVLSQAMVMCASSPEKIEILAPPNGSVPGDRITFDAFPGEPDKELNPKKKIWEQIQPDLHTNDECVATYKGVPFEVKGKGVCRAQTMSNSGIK

[3] = molecular target: T3, GRS (glycyl tRNA synthetase) (UniProt P41250 55-739, limits assumed)
T3 sequence (looked up): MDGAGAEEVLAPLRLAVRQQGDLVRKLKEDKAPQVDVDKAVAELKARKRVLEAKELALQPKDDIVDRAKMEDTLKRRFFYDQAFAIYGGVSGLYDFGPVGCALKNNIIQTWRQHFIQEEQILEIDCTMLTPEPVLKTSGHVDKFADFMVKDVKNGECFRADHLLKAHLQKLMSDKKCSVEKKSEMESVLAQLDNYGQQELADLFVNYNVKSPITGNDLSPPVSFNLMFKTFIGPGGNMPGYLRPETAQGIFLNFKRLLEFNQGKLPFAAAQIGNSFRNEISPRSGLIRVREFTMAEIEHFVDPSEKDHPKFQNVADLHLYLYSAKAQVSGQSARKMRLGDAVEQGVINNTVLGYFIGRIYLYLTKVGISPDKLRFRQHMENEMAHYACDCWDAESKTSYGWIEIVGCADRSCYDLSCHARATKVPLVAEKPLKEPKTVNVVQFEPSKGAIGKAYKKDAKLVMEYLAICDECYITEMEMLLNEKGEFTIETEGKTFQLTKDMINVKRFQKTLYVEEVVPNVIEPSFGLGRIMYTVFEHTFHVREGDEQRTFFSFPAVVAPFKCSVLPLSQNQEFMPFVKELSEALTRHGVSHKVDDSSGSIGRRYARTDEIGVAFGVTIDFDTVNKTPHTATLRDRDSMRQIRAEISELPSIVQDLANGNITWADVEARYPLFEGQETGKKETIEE

[4] = molecular target: KRS (lysyl tRNA synthetase) (UniProt Q15046 1-597, limits assumed)
Sequence of KRS (lysyl tRNA synthetase) (Q15046 whole entry): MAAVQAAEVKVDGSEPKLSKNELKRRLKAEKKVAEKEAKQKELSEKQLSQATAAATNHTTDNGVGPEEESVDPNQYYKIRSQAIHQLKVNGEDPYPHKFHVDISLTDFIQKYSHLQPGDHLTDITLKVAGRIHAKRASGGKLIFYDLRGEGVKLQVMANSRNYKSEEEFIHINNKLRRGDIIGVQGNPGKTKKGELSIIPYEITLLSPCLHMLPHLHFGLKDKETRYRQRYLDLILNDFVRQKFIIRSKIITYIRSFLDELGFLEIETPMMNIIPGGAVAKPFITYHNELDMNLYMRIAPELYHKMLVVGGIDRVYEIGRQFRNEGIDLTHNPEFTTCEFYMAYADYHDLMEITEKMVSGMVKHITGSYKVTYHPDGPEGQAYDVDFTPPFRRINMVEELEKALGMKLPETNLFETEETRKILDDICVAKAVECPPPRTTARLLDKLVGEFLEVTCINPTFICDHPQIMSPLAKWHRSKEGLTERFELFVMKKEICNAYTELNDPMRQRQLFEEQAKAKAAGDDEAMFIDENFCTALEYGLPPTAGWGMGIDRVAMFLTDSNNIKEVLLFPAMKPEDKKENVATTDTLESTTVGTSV

binding result [1]: no binding (tested: 500 ng/ml)
binding result [2]: no binding (tested: 500 ng/ml)
binding result [3]: no binding (tested: 500 ng/ml)
binding result [4]: no binding (tested: 500 ng/ml)
B1: 4D10G6 monoclonal antibody (antibody, V domains shown)
VH: EFQLQQSGPELVKPGASVKISCKASGYAFIDYNMNWVKQSNGKSLEWIGVINPNYGTIRYNQKFKGKATLTVDQSSSTAYMQLNSLTSEDSAVYYCAGLLRGYYAMDYWGQGTSVTVSS
VL: QAVVTQESALTTSPGETVTLTCRSSTGAVTTSNYANWVQEKPDHLFTGLIGGTNNRAPGVPARFSGSLIGDKAALTITGAQTEDEAIYFCVLWYSNHWVFGGGTKLTVL
notes: Mouse hybridoma monoclonal (Balb/c), purified from ascites on Protein A or G beads; also called the antibody according to the present invention
